Measured values reported in publication PMC2923024.

What was measured:
KSRP = biological target: T1, KSRP (UniProt Q92945 1-711); assay: competition
T1 sequence: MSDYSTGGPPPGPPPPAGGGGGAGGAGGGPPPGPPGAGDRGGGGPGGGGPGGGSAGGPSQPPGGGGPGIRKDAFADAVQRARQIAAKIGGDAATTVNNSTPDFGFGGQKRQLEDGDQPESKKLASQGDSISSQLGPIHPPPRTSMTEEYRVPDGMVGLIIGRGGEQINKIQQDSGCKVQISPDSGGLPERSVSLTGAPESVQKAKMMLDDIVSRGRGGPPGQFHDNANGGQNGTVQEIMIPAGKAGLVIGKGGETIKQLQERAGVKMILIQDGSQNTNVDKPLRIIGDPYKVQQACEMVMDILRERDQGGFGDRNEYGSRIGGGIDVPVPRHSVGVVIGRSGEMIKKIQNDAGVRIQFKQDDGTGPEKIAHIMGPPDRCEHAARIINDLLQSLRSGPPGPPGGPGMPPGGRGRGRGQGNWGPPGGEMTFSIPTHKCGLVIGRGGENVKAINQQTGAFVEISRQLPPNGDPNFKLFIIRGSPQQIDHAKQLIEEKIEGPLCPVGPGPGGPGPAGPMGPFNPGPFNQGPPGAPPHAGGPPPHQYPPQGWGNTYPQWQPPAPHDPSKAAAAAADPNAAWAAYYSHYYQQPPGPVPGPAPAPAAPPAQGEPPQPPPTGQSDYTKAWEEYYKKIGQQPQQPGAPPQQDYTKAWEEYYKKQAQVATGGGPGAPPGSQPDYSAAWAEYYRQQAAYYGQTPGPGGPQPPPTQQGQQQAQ

hnRNP A1 UP1 fragment = hnRNP A1 UP1 fragment (UniProt P09651 1-196); assay: competition
Sequence of hnRNP A1 UP1 fragment (P09651 1-196): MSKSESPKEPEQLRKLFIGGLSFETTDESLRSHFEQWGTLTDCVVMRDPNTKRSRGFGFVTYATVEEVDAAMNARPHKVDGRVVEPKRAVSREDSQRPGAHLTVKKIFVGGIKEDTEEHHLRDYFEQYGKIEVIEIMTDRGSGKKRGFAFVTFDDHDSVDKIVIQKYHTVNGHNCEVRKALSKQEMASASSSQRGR

GUUGUAUAGUUUUAGGGUCACACCCACCACUGGGAGAUAACUAUACAAUC (structured_RNA) [let-7a-1 loop]
binding result (KSRP): binds | binding result (hnRNP A1 UP1 fragment): binds
